From patent publication US20220119531A1 (I MAB BIOPHARMA US, published 2022)

Experiments:
[1] = biological target: T1, human PD-L1 expressed on mammalian cells (human, UniProt Q9NZQ7 19-290); experiment: FACS on PD-L1 Raji cells by the text; the axis unit is printed only as 'ng', no volume
T1 construct: whole, on cells; The cell line (CHOK1 or Raji) is named under assay in each row; also called PDL1-CHOK1 cells; PD-L1 Raji cells
Method: Briefly, PD-L1 Raji cells were first incubated with 5-fold serially diluted humanized antibodies starting at 2 μg/ml at RT for 1 hour. After wash by FACS buffer (PBS with 2% FBS), the Alexa 488-anti-human IgG antibody was added to each well and incubated at RT for 1 hour. The MFI of Alexa 488 were evaluated by FACSAriaIII.

[2] = biological target: T2, PD-L1 K162 alanine-scan mutant (human, UniProt Q9NZQ7 19-290, limits assumed); experiment: alanine-scan library, high-throughput flow cytometry; threshold for critical clones
T2 construct: Read by flow cytometry
Description: (§1) An alanine-scan library of PD-L1 was constructed. Briefly, 217 mutant clones of PD-L1 were generated on Integral Molecular's protein engineering platform. […] For each PD-L1 variant, the mean binding value was plotted as a function of expression (control anti-PD-L1 mAb reactivity).

[3] = biological target: T3, PD-L1 Y134 alanine-scan mutant (human, UniProt Q9NZQ7 19-290, limits assumed); experiment: as above
T3 construct: Read by flow cytometry
Description: as §1

PD-L1 N183A clone = biological target: T4, PD-L1 N183A clone (human, UniProt Q9NZQ7 19-290, limits assumed); experiment: as above
T4 construct: Read by flow cytometry
Description: as §1

T1 sequence (Q9NZQ7 19-290): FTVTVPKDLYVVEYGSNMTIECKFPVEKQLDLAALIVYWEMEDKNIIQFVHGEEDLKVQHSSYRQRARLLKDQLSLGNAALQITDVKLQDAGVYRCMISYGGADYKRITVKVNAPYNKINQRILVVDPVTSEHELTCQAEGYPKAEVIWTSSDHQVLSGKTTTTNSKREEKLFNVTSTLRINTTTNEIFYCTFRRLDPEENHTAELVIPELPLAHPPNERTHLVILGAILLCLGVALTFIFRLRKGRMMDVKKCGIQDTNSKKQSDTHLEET
T3 sequence (Q9NZQ7 other isoform, or with tags, fused parts or gaps mutant limits assumed): as the sequence (Q9NZQ7 19-290) above, with Y116A counted along it
T4 sequence (Q9NZQ7 19-290 N183A limits assumed): as the sequence (Q9NZQ7 19-290) above, with N165A counted along it
T2 sequence (Q9NZQ7 other isoform, or with tags, fused parts or gaps mutant limits assumed): as the sequence (Q9NZQ7 19-290) above, with K144A counted along it

EC50 (read off the curve) [1] [ng] | % WT reactivity [2] | % WT reactivity [3] | % WT reactivity (PD-L1 N183A clone) | Binder
~0.5 |  |  |  | Hu1210-41 (antibody, V domains shown, Humanized; also called Hu1210-41 antibody; parental antibody Hu1210-41) VH: EVQLVESGGGLVQPGGSLRLSCAASGFTFSSYDMSWVRQAPGKSLEWVATISDAGGYIYYSDSVKGRFTISRDNAKNSLYLQMNSLRDEDTAVYICAREFGKRYALDYWGQGTTVTVSS VL: DIQMTQSPSSLSASVGDRVTITCKASQDVTPAVAWYQQKPGKAPKLLIYSTSSRYTGVPSRFSGSGSGTDFTFTISSLQPEDIATYYCQQHYTTPLTFGQGTKLEIK
~0.4 |  |  |  | WT (S60R mutant of Hu1210-41) (antibody, V domains shown, Differs from Hu1210-41 by S60R (Kabat) in the heavy chain; Detected with anti-human IgG; also called S6OR (CDRH2) mutant; parental antibody WT) VH: EVQLVESGGGLVQPGGSLRLSCAASGFTFSSYDMSWVRQAPGKSLEWVATISDAGGYIYYRDSVKGRFTISRDNAKNSLYLQMNSLRDEDTAVYICAREFGKRYALDYWGQGTTVTVSS VL: DIQMTQSPSSLSASVGDRVTITCKASQDVTPAVAWYQQKPGKAPKLLIYSTSSRYTGVPSRFSGSGSGTDFTFTISSLQPEDIATYYCQQHYTTPLTFGQGTKLEIK
 | < 30 % of WT | < 30 % of WT | < 30 % of WT | Hu1210-41 Fab (Fab, V domains shown) VH: EVQLVESGGGLVQPGGSLRLSCAASGFTFSSYDMSWVRQAPGKSLEWVATISDAGGYIYYSDSVKGRFTISRDNAKNSLYLQMNSLRDEDTAVYICAREFGKRYALDYWGQGTTVTVSS VL: DIQMTQSPSSLSASVGDRVTITCKASQDVTPAVAWYQQKPGKAPKLLIYSTSSRYTGVPSRFSGSGSGTDFTFTISSLQPEDIATYYCQQHYTTPLTFGQGTKLEIK
